Source: the Human Domainome abundance scans (Beltran et al. 2025)
± gives the uncertainty stated by the source.

B1: Zinc finger protein ZIC 2, residues 250 to 295; numbered along this chain, O95409 (parent)
chain: QCIKQELICKWIDPEQLSNPKKSCNKTFSTMHELVTHVSVEHVGGP

Variants of: B1
Assay: abundance fitness (aPCA) (normalised: wild type 0, dead -1); higher = more abundant; growth selection in yeast, the domain comes from the species named
Details: Homo sapiens

Variant | abundance fitness
QCIKQELICKWIDPEQLSKPKKSCNKTFSTMHELVTHVSVEHVGGP | -0.012 ± 0.1
QCIKQELICKWIDPEQLSHPKKSCNKTFSTMHELVTHVSVEHVGGP | 0.056 ± 0.13
QCIKQELICKWIDPEQLSRPKKSCNKTFSTMHELVTHVSVEHVGGP | -0.053 ± 0.085
QCIKQELICKWIDPEQLSLPKKSCNKTFSTMHELVTHVSVEHVGGP | -0.17 ± 0.088
QCIKQELICKWIDPEQLSMPKKSCNKTFSTMHELVTHVSVEHVGGP | -0.067 ± 0.099
QCIKQELICKWIDPEQLSIPKKSCNKTFSTMHELVTHVSVEHVGGP | 0.164 ± 0.13
QCIKQELICKWIDPEQLSSPKKSCNKTFSTMHELVTHVSVEHVGGP | -0.079 ± 0.089
QCIKQELICKWIDPEQLSVPKKSCNKTFSTMHELVTHVSVEHVGGP | 0.007 ± 0.087
QCIKQELICKWIDPEQLSAPKKSCNKTFSTMHELVTHVSVEHVGGP | -0.131 ± 0.091
QCIKQELICKWIDPEQLSYPKKSCNKTFSTMHELVTHVSVEHVGGP | -0.451 ± 0.13
QCIKQELICKWIDPEQLSPPKKSCNKTFSTMHELVTHVSVEHVGGP | -0.104 ± 0.1
QCIKQELICKWIDPEQLSWPKKSCNKTFSTMHELVTHVSVEHVGGP | -0.74 ± 0.1
QCIKQELICKWIDPEQLSCPKKSCNKTFSTMHELVTHVSVEHVGGP | -0.957 ± 0.12
QCIKQELICKWIDPEQLSQPKKSCNKTFSTMHELVTHVSVEHVGGP | 0.132 ± 0.099
QCIKQELICKWIDPEQLSFPKKSCNKTFSTMHELVTHVSVEHVGGP | -0.166 ± 0.15
QCIKQELICKWIDPEQLSDPKKSCNKTFSTMHELVTHVSVEHVGGP | -0.092 ± 0.11
QCIKQELICKWIDPEQLSTPKKSCNKTFSTMHELVTHVSVEHVGGP | 0.118 ± 0.099
QCIKQELICKWIDPEQLSEPKKSCNKTFSTMHELVTHVSVEHVGGP | -0.006 ± 0.093
QCIKQELICKWIDPEQLSNNKKSCNKTFSTMHELVTHVSVEHVGGP | -0.121 ± 0.12

Variant | abundance fitness
QCIKQELICKWIDPEQLSNFKKSCNKTFSTMHELVTHVSVEHVGGP | -0.356 ± 0.12
QCIKQELICKWIDPEQLSNLKKSCNKTFSTMHELVTHVSVEHVGGP | -0.184 ± 0.092
QCIKQELICKWIDPEQLSNTKKSCNKTFSTMHELVTHVSVEHVGGP | -0.554 ± 0.11
QCIKQELICKWIDPEQLSNWKKSCNKTFSTMHELVTHVSVEHVGGP | -0.521 ± 0.096
QCIKQELICKWIDPEQLSNDKKSCNKTFSTMHELVTHVSVEHVGGP | 0.057 ± 0.12
QCIKQELICKWIDPEQLSNKKKSCNKTFSTMHELVTHVSVEHVGGP | -0.233 ± 0.12
QCIKQELICKWIDPEQLSNIKKSCNKTFSTMHELVTHVSVEHVGGP | -0.498 ± 0.13
QCIKQELICKWIDPEQLSNCKKSCNKTFSTMHELVTHVSVEHVGGP | -0.832 ± 0.11
QCIKQELICKWIDPEQLSNQKKSCNKTFSTMHELVTHVSVEHVGGP | -0.264 ± 0.11
QCIKQELICKWIDPEQLSNHKKSCNKTFSTMHELVTHVSVEHVGGP | -0.883 ± 0.14
QCIKQELICKWIDPEQLSNAKKSCNKTFSTMHELVTHVSVEHVGGP | -0.235 ± 0.094
QCIKQELICKWIDPEQLSNYKKSCNKTFSTMHELVTHVSVEHVGGP | -0.621 ± 0.15
QCIKQELICKWIDPEQLSNMKKSCNKTFSTMHELVTHVSVEHVGGP | -0.076 ± 0.11
QCIKQELICKWIDPEQLSNEKKSCNKTFSTMHELVTHVSVEHVGGP | -0.046 ± 0.12
QCIKQELICKWIDPEQLSNVKKSCNKTFSTMHELVTHVSVEHVGGP | -0.111 ± 0.089
QCIKQELICKWIDPEQLSNRKKSCNKTFSTMHELVTHVSVEHVGGP | -0.416 ± 0.086
QCIKQELICKWIDPEQLSNPKASCNKTFSTMHELVTHVSVEHVGGP | -0.175 ± 0.092
QCIKQELICKWIDPEQLSNPKCSCNKTFSTMHELVTHVSVEHVGGP | -0.349 ± 0.11
QCIKQELICKWIDPEQLYNPKKSCNKTFSTMHELVTHVSVEHVGGP | -0.317 ± 0.12

Variant | abundance fitness
QCIKQELICKWIDPEQLSNPAKSCNKTFSTMHELVTHVSVEHVGGP | -0.008 ± 0.09
QCIKQELICKWIDPEQLSNPQKSCNKTFSTMHELVTHVSVEHVGGP | 0.126 ± 0.12
QCIKQELICKWIDPEQLSNPVKSCNKTFSTMHELVTHVSVEHVGGP | -0.116 ± 0.089
QCIKQELICKWIDPEQLSNPIKSCNKTFSTMHELVTHVSVEHVGGP | -0.153 ± 0.099
QCIKQELICKWIDPEQLSNPPKSCNKTFSTMHELVTHVSVEHVGGP | 0.028 ± 0.1
QCIKQELICKWIDPEQLSNPNKSCNKTFSTMHELVTHVSVEHVGGP | 0.314 ± 0.11
QCIKQELICKWIDPEQLSNPHKSCNKTFSTMHELVTHVSVEHVGGP | 0.016 ± 0.11
QCIKQELICKWIDPEQLSNPWKSCNKTFSTMHELVTHVSVEHVGGP | -0.102 ± 0.098
QCIKQELICKWIDPEQLSNPLKSCNKTFSTMHELVTHVSVEHVGGP | -0.091 ± 0.089
QCIKQELICKWIDPEQLSNPRKSCNKTFSTMHELVTHVSVEHVGGP | -0.302 ± 0.086
QCIKQELICKWIDPEQLSNPTKSCNKTFSTMHELVTHVSVEHVGGP | -0.168 ± 0.1
QCIKQELICKWIDPEQLSNPEKSCNKTFSTMHELVTHVSVEHVGGP | 0.078 ± 0.1
QCIKQELICKWIDPEQLSNPSKSCNKTFSTMHELVTHVSVEHVGGP | -0.178 ± 0.09
QCIKQELICKWIDPEQLSNPMKSCNKTFSTMHELVTHVSVEHVGGP | -0.203 ± 0.13
QCIKQELICKWIDPEQLSNPYKSCNKTFSTMHELVTHVSVEHVGGP | -0.095 ± 0.11
QCIKQELICKWIDPEQLSNPFKSCNKTFSTMHELVTHVSVEHVGGP | 0.01 ± 0.11
QCIKQELICKWIDPEQLSNPGKSCNKTFSTMHELVTHVSVEHVGGP | -0.12 ± 0.086
QCIKQELICKWIDPEQLSNPCKSCNKTFSTMHELVTHVSVEHVGGP | -0.673 ± 0.1
